Assay results reported in patent publication US20100286372A1 (SCHERING, published 2010).

Assays:
[1] = molecular target: T1, human PXR-LBD (pregnane X receptor ligand binding domain, residues 130-434) with N-terminal 6x His (human, UniProt O75469 130-434); assay: temperature-dependent circular dichroism (thermal denaturation) of PXR with 50 uM peptide
T1 construct: also called apo PXR; not shown: N-terminal 6x His tag
T1 sequence: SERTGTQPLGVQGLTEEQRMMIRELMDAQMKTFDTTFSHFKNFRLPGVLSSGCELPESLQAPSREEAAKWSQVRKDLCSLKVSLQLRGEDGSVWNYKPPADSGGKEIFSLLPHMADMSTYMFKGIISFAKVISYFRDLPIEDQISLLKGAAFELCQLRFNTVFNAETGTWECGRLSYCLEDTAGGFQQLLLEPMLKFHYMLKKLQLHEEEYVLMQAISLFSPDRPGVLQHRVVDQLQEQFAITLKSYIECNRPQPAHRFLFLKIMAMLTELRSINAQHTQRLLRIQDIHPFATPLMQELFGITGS

[2] = molecular target: T1, human PXR-LBD (pregnane X receptor …); assay: temperature-dependent circular dichroism (thermal denaturation), shift against apo PXR (Tm 41.5 C)
[3] = molecular target: T1, human PXR-LBD (pregnane X receptor …); assay: temperature-dependent circular dichroism (thermal denaturation at 220 nm), 2.5 uM PXR, 50 uM peptide

B1: SRC-1 peptide (676-CPSSHSSLTERHKILHRLLQEGSPS-700) (peptide)
peptide: CPSSHSSLTERHKILHRLLQEGSPS
Tm [1]: 45.5 C
ΔTm [2]: 4 C
Kd [3]: 1340 nM
